Measured values published in patent publication US20190055304A1 (published 2019).

Experiments:
[1] = target: T1, full length DNABII protein, HU-beta, from Staphylococcus aureus (Staphylococcus aureus, UniProt Q5HFV0 1-90); test: adsorption ELISA, antigen coated; given as 'affinity', estimated as half-maximal binding concentration
T1 construct: mature; also called HU Sa; HU-beta of S. aureus; not shown: poly-histidine tag
T1 sequence: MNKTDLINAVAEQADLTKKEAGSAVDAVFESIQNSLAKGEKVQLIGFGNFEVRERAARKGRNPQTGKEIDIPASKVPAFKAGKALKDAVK

[2] = target: T2, DNABII protein from Pseudomonas aeruginosa (IHF-alpha by the legend of FIGS. 7A-7C) (Pseudomonas aeruginosa, UniProt Q51472 2-100); test: ELISA at pH 4.5; printed as 'Affinity (nM)'
T2 construct: mature; also called Pa; P. aeruginosa; not shown: poly-histidine tag
T2 sequence: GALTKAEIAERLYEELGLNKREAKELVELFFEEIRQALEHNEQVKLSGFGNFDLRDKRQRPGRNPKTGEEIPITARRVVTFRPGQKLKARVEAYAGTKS

[3] = target: T3, DNABII protein from Klebsiella pneumoniae (IHF; IHF-alpha by the legend of FIGS. 7A-7C) (Klebsiella pneumoniae, UniProt A6TAI1 1-99); test: ELISA at pH 4.5; printed as 'Affinity (nM)'
T3 construct: also called Kp; K. pneumoniae
T3 sequence: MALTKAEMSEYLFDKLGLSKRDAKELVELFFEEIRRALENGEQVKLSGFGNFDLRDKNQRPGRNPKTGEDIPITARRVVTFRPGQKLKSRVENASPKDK

[4] = target: T1, full length DNABII protein, HU-beta, …; test: ELISA at pH 4.5; printed as 'Affinity (nM)'
[5] = target: T4, DNABII protein from Haemophilus influenzae (IHF) (Haemophilus influenzae); test: adsorption ELISA, antigen coated; printed as 'Affinity (pM)', half-maximal binding concentration
T4 construct: mature; also called H. influenzae; IHF from Haemophilus influenzae

[6] = target: T5, DNABII protein from Acinetobacter baumannii (Acinetobacter baumannii); test: as above
T5 construct: mature

[7] = target: T2, DNABII protein from Pseudomonas …; test: ELISA at pH 5.5; printed as 'Affinity (nM)'
[8] = target: T3, DNABII protein from Klebsiella …; test: ELISA at pH 5.5; printed as 'Affinity (nM)'
[9] = target: T1, full length DNABII protein, HU-beta, …; test: ELISA at pH 5.5; printed as 'Affinity (nM)'
[10] = target: T2, DNABII protein from Pseudomonas …; test: ELISA at pH 6.5; printed as 'Affinity (nM)'
[11] = target: T3, DNABII protein from Klebsiella …; test: ELISA at pH 6.5; printed as 'Affinity (nM)'
[12] = target: T1, full length DNABII protein, HU-beta, …; test: ELISA at pH 6.5; printed as 'Affinity (nM)'
[13] = target: T2, DNABII protein from Pseudomonas …; test: ELISA at pH 2.5; printed as 'Affinity (nM)'
[14] = target: T3, DNABII protein from Klebsiella …; test: ELISA at pH 2.5; printed as 'Affinity (nM)'
[15] = target: T1, full length DNABII protein, HU-beta, …; test: ELISA at pH 2.5; printed as 'Affinity (nM)'
[16] = target: T2, DNABII protein from Pseudomonas …; test: ELISA at pH 7.5; printed as 'Affinity (nM)'
[17] = target: T3, DNABII protein from Klebsiella …; test: ELISA at pH 7.5; printed as 'Affinity (nM)'
[18] = target: T1, full length DNABII protein, HU-beta, …; test: ELISA at pH 7.5; printed as 'Affinity (nM)'
[19] = target: T2, DNABII protein from Pseudomonas …; test: ELISA at pH 3.5; printed as 'Affinity (nM)'
[20] = target: T3, DNABII protein from Klebsiella …; test: ELISA at pH 3.5; printed as 'Affinity (nM)'
[21] = target: T1, full length DNABII protein, HU-beta, …; test: ELISA at pH 3.5; printed as 'Affinity (nM)'
[22] = target: peptide 26, […] (Staphylococcus aureus); test: ELISA, biotinylated peptides on streptavidin coated plates
[23] = target: peptide 14, SGSG … (Staphylococcus aureus); test: as above
[24] = target: peptide 13, SGSG … (Staphylococcus aureus); test: as above
[25] = target: peptide 20, SGSG … (Staphylococcus aureus); test: as above
[26] = target: peptide 6, SGSG … (Staphylococcus aureus); test: as above
[27] = target: peptide 19, SGSG … (Staphylococcus aureus); test: as above
[28] = target: peptide 12, SGSG … (Staphylococcus aureus); test: as above
[29] = target: peptide 18, SGSG … (Staphylococcus aureus); test: as above

T5 sequence (B7I698 whole entry): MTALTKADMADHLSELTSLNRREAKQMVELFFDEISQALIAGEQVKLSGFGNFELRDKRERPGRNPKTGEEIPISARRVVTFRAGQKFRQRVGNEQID
T4 sequence (P43723 whole entry): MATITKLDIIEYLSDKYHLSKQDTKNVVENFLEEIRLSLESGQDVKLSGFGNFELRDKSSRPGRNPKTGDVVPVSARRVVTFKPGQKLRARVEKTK

B1: TRL1361 (antibody, V domains shown)
VH: QVQLVESGGGLAQPGGSLRLSCAASGFIFNTYAMGWVRQAPGKGLEWVSTVSAPGAGTYYTDSVKGRFIISRDNSKNILYLQMNRLRVEDTAVYYCARDQGGPAVAGARIFDYWGQGALVTVSS
VL: DIVLTQSPLSLSVTPGQPASISCKSSQSLLRSDGKTYLCWYLQKPGQPPQLLIYEVSNRVSGVPDRFSGSGSGTDFTLKISRVEAEDVGVYYCMQSIQLRTFGQGTKVEIKR
Q: Which EC50 [1] does the source give for B1 here?
A: Its EC50 is 6.6 nM.

B2: TRL1338 (antibody, V domains shown)
VH: QLTLRESGPTLVKPTQTLTLTCTFSGFSLSTNGVGVGWIRQPPGKALEWLAIIYWDDDKRYSPSLKSRLTITKDTSKNQVVLTLTNMDPVDTGTYYCAHILGASNYWTGYLRYYFDYWGQGTLVTVST
VL: DIEMTQSPSVSVSPGQTARITCSGEPLAKQYAYWYQQKSGQAPVVVIYKDTERPSGIPERFSGSSSGTTVTLTISGVQAEDEADYHCESGDSSGTYPVFGGGTKLTVL
Q: How did the EC50 [1] turn out when B2 was run?
A: Its EC50 is 42 nM.

B3: TRL1337 (antibody, V domains shown)
VH: QVQLLESGPGLVKPSETPSLTCTVSGGSIRSYYWSWIRQPPGKGLEWIGYIYYSGSTNYNPSLKSRVTISVDMSKNQFSLKLSSVTAADTAMYYCARVYGGSGSYDFDYWGQGTLVTVSS
VL: DIVLTQSPSASGSPGQSVTISCTGTSSDVGGYNYVSWYQQLPGKAPKLMIYEVTKRPSGVPDRFSGSKSGNTASLTVSGLQAEDEADYYCSSFAGSNNHVVFGGGTKLTVL
Q: For B3, which EC50 [1] is on record?
A: The EC50 was 6 nM.

B4: TRL1068 (antibody, V domains shown)
VH: QVQLVESGPGLVKPSETLSLTCRVSGDSNRPSYWSWIRQAPGKAMEWIGYVYDSGVTIYNPSLKGRVTISLDTSKTRFSLKLTSVIAADTAVYYCARERFDRTSYKSWWGQGTQVTVSS
VL: DIVLTQAPGTLSLSPGDRATLSCRASQRLGGTSLAWYQHRSGQAPRLILYGTSNRATDTPDRFSGSGSGTDFVLTISSLEPEDFAVYYCQQYGSPPYTFGQGTTLDIK
Q: What does the source list for B4?
A: EC50 [2]: 0.009 nM; EC50 [3]: 0.05 nM; EC50 [4]: 0.012 nM; EC50 [5]: 5 nM; EC50 [6]: 0.01 nM; EC50 [7]: 0.006 nM; EC50 [8]: 0.009 nM; EC50 [9]: 0.012 nM; EC50 [10]: 0.005 nM; EC50 [11]: 0.006 nM; EC50 [12]: 0.012 nM; EC50 [13]: 2.1 nM; EC50 [14]: 2.6 nM; EC50 [15]: 3.5 nM; EC50 [16]: 0.005 nM; EC50 [17]: 0.006 nM; EC50 [18]: 0.01 nM; EC50 [19]: 0.26 nM; EC50 [20]: 3 nM; EC50 [21]: 0.36 nM

B5: TRL1335 (antibody, V domains shown)
VH: QVQLVESGAEVKKPGESLKISCKGSGYNFTSYWIGWVRQMPGKGLEWMGVIYPDDSDTRYSPSFKGQVTISADKSISTAFLQWSSLKASDTAVYHCARPPDSWGQGTLVTVSS
VL: DIVMTQSPATLSVSPGERATLSCRASQSVSSNLAWYQQKPGLAPRLLIVGASNRATGIPARFSGSGSGTEFTLTISSLQSEDFAFYYCQQYNNWPFTFGPGTKVDVKR
Q: Does B5 bind [22]?
A: Result: no binding

Q: Does B5 bind [23]?
A: Result: no binding

Q: Does B5 bind [24]?
A: Result: no binding

Q: Does B5 bind [25]?
A: Result: no binding

Q: Does B5 bind [26]?
A: Result: no binding

Q: Does B5 bind [27]?
A: Result: no binding

Q: Does B5 bind [28]?
A: Result: no binding

Q: Does B5 bind [29]?
A: Result: no binding

B6: TRL1330 (antibody, V domains shown)
VH: QVQLVESGTEVKNPGASVKVSCTASGYKFDEYGVSWVRQSPGQGLEWMGWISVYNGKTNYSQNFQGRLTLTTETSTDTAYMELTSLRPDDTAVYYCATDKNWFDPWGPGTLVTVSS
VL: DIVLTQSPSASGSPGQSITISCTGTNTDYNYVSWYQHHPGKAPKVIIYDVKKRPSGVPSRFSGSRSGNTATLTVSGLQTEDEADYYCVSYADNNHYVFGSGTKVTVL
Q: What does the source list for B6?
A: EC50 [5]: 0.026 nM; EC50 [6]: 0.017 nM
